B1: Hammerhead Ribozyme (parent)
chain: ACCGGAUGUGCUUUCCGGUCUGAUGAGUCCGUGAGGACGAAACAG

The variants in the data set derive from B1. The experiment in a line: self-cleavage, relative activity (ratio to wild type); higher = more cleavage; co-transcriptional.
With U32A A34U, the self-cleavage worked out at 1.04.
Next, U21A A26G: 0.346.
The same measure for C3A A41C: 0.299.
For the variant A1G G31C, the self-cleavage was 1.64.
Turning to G10A A44C, the self-cleavage was 0.517.
As to C29A G45U, the self-cleavage is 0.35.
Next, C29A G45A: 0.372; U13A G18U: 1.23; G4U G8U: 0.933.
As for U21A U24G, the self-cleavage stood at 0.516.
Next, U14C G27C: 0.54; G4U C38A: 0.289.
Turning to A34G C38U, the self-cleavage came to 1.13.
As for U21G G22C, the self-cleavage came out at 0.292.
With G35C A37C, the self-cleavage was found to be 0.504.
With U9A U21G, the self-cleavage amounted to 0.58.
In the case of G25C G45C, the self-cleavage is 0.378.
Next, C2A G17U: 0.365.
As to A1C C38A, the self-cleavage amounted to 0.408.
In the case of G8C C16G, the self-cleavage is 0.511.
Next, C2A A40G: 0.324; A23C A37G: 0.237.
The same measure for C16A C20U: 0.567.
Next, G5A G39C: 0.328; A42G G45A: 0.306.
Turning to G22C U28G, the self-cleavage stood at 0.293.
The same measure for A6U U32G: 0.559; for G22A A42U: 0.321; for G8A C29A: 0.565.
Next, A6G U9G: 1.09; C11G C43A: 0.311; A26G C29U: 0.365.
Next, C20U G22C: 0.377.
As to U28C A34U, the self-cleavage amounted to 0.723.
For the variant A6U C30U, the self-cleavage amounted to 0.743.
For the variant G17U C30A, the self-cleavage was 0.583.
On to G22A C30G, for which the self-cleavage amounted to 0.343.
Consider U13C U24C, for which the self-cleavage is 1.31.
The same measure for A1C G4A: 0.406.
Regarding C30U G39U, the self-cleavage amounted to 0.365.
For C2A U24C, the self-cleavage is 0.733.
G8U C11A: the self-cleavage came to 1.11.
The same measure for C15A A42U: 0.282; for G8A C15U: 0.835; for C3U A23G: 0.331.
Next, U14A G35C: 0.654; G10U U14G: 0.709.
Regarding C3G A41U, the self-cleavage was 0.3.
The same measure for G33U A40C: 0.726; for U7G A23G: 0.273; for C3A A6G: 0.366.
With U9G A41U, the self-cleavage came out at 0.306.
The same measure for C16A C38A: 0.631; for U24C G33C: 1.15.
In the case of G10C U24G, the self-cleavage was found to be 1.06.
In the case of U21G G36C, the self-cleavage was determined as 0.365.
On to A26C U28G, for which the self-cleavage was 0.46.
The same measure for C30U A34U: 0.93; for C3A C38A: 0.315; for U28A A41C: 0.277.
C11U G17C: the self-cleavage turned out to be 0.43.
For U9G G18C, the self-cleavage is 0.364.
Next, U9C A44C: 0.493.
On to A26U A34G, for which the self-cleavage came out at 0.482.
In the case of U24A C43U, the self-cleavage worked out at 0.518.
The same measure for G4U U14C: 0.416; for G36A A37G: 0.556.
On to G10U G25U, for which the self-cleavage turned out to be 0.314.
Next, G36U C38U: 0.674; G10U G36C: 0.929.
Next, U32C G35C: 0.647; C16U C38A: 0.73; A26G G35A: 0.286.
For C3U C16U, the self-cleavage was found to be 0.955.
Next, U28C C30A: 0.826.
The same measure for G25U C29U: 0.273; for G22C G45C: 0.424; for G33U G36U: 0.618.
Regarding G8U C15U, the self-cleavage amounted to 1.05.
In the case of G8U C15A, the self-cleavage amounted to 0.884.
On to C16G A40U, for which the self-cleavage was found to be 0.321.
The same measure for A6U U21C: 0.616; for A23G G36U: 0.403; for G22C U32C: 0.335.
With A1G G18C, the self-cleavage worked out at 0.58.
The same measure for G27U G35A: 0.334; for U14C G33A: 0.754; for U21C A44G: 0.852.
Next, G18A U19C: 0.402; U13A A34U: 1.46.
Next, A26G A37G: 0.424.
For C3U G5A, the self-cleavage worked out at 0.491.
Next, U24C G39A: 0.337; G8C G36A: 0.652; G5A G27U: 0.538.
Next, A6G G10U: 1.1.
The same measure for A6C U7G: 0.392; for G5C G25A: 0.305.
As for A6C U28C, the self-cleavage was 0.604.
For the variant G5A U19A, the self-cleavage was 0.382.
Take U12G G33A: the self-cleavage was found to be 1.02.
Consider G17C A44U, for which the self-cleavage is 0.414.
Next, C2G G27U: 0.327; G17C C20U: 0.331; G22C G36U: 0.322.
Next, U13G U21C: 0.579.
Next, A6C A41G: 0.374; U32A G45C: 0.593; G10C A42U: 0.277.
Take G10C A42C: the self-cleavage worked out at 0.34.
For the variant C3G G22C, the self-cleavage was determined as 0.292.
With G22C G25U, the self-cleavage was determined as 0.432.
Consider A1C G25C, for which the self-cleavage was 0.313.
Take U28A G39U: the self-cleavage was determined as 0.301.
Next, C20G U28C: 0.261; C38A C43U: 0.462; G18A A26U: 0.423.
Turning to U14C G39C, the self-cleavage amounted to 0.337.
Next, G5U A34C: 0.833; G10C C16G: 0.522.
Next, A34C: 0.909; U9G C15U: 0.842.
The same measure for A40G A42G: 0.312; for G31U C43A: 0.376.
As to A26U G45A, the self-cleavage stood at 0.359.
Next, C2G U14G: 0.309; A6U G39C: 0.294.
For the variant C2U A40G, the self-cleavage was 0.284.
The same measure for U13A G36A: 0.732.
Next, C16G G36U: 0.314; U9A G36U: 0.505.
For the variant G27U A40G, the self-cleavage was 0.298.
Next, G27U A40C: 0.363; U21C C38G: 0.659.
For U14G U28C, the self-cleavage was 0.602.
For U19C A26G, the self-cleavage was 0.242.
The same measure for C15U G22A: 0.288; for A1C G10U: 0.339; for C29G G31C: 0.74.
The same measure for G4C A41C: 0.316.
As for G4U U7G, the self-cleavage was determined as 0.381.
Next, G5C A6C: 0.423; G5C G8U: 0.693; G5U U9C: 0.881.
On to U28C U32C, for which the self-cleavage was 1.
Next, A23U G45C: 0.42; C16U G17U: 0.714.
The same measure for A37C A40G: 0.354; for A1G U12G: 1.91.
As to A1G U12C, the self-cleavage worked out at 1.71.
As to A34C G35A, the self-cleavage stood at 0.893.
Take C15A A44C: the self-cleavage was 0.404.
Regarding A1U G31U, the self-cleavage stood at 0.748.
The same measure for U7G C38A: 0.502.
Next, U7G U14A: 1.46.
The same measure for C29A A34G: 0.518; for C15U U28G: 0.568; for C20U A23G: 0.356.
On to G22U C30G, for which the self-cleavage amounted to 0.277.
Next, G5C G35C: 0.324; C11G U13G: 1.11.
Next, A1U G17U: 0.357; G10A A23G: 0.34.
For the variant A1U C20U, the self-cleavage is 0.333.
Next, G18A C43U: 0.285.
The same measure for G25A G39A: 0.335.
The same measure for C11A G18C: 0.586.
